Holding throughout (test): acetoin formation, Voges-Proskauer test, Michaelis-Menten fit
Settings in all cases: 100 mM phosphate pH 8.0, 0.1 mM TPP, 1 mM Mg2+, 2-600 mM acetaldehyde

The target in data set [1] is T1, formolase (FLS) (Pseudomonas fluorescens, UniProt Q9F4L3, A28I/W89R/L90T/R188H/A394G/G419N/A480W).
T1 construct: gene bznB; computationally designed formolase derived from benzaldehyde lyase; pET28a, E. coli BL21(DE3), Ni-NTA His-tag purified
T1 sequence (Q9F4L3 1-563 A28I/W89R/L90T/R188H/A394G/G419N/A480W): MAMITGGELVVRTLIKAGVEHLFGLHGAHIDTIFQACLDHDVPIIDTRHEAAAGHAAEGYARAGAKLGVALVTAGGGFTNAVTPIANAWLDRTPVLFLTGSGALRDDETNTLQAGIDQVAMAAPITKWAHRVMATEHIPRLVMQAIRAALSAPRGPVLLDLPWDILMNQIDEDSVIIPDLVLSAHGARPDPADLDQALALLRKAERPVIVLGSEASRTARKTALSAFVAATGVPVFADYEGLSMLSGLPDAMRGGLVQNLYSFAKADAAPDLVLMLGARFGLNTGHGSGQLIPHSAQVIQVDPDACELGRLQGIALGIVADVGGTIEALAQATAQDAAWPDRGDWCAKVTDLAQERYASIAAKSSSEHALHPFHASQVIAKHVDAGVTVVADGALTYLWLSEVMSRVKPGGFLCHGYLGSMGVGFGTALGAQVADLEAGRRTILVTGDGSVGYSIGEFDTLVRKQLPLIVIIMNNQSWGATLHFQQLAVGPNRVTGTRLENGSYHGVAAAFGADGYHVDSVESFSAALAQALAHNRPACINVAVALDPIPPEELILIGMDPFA
The class given is biochemical. The text has this: (§1) acetoin formation, Voges-Proskauer test, Michaelis-Menten fit on formolase (FLS)

Data set [2] deals with T2, formolase (FLS) (Pseudomonas fluorescens, UniProt Q9F4L3, A28I/W89R/L90T/R188H/A394G/G419N/A480W/L482E).
T2 construct: gene bznB; computationally designed formolase derived from benzaldehyde lyase; pET28a, E. coli BL21(DE3), Ni-NTA His-tag purified
T2 sequence (Q9F4L3 1-563 A28I/W89R/L90T/R188H/A394G/G419N/A480W/L482E): T1 sequence (Q9F4L3 1-563 A28I/W89R/L90T/R188H/A394G/G419N/A480W)
It is filed as biochemical.
Source text: as §1

The test system of the next data set is T3, CC=O.
T3 construct: computationally designed formolase derived from benzaldehyde lyase; pET28a, E. coli BL21(DE3), Ni-NTA His-tag purified
The class given is biochemical, Pseudomonas fluorescens.
Source text: as §1

As usually defined, the Km is the concentration of substrate that gives half-maximal velocity. `CC=O` [acetaldehyde]: the Michaelis-Menten constant (Km) on formolase (FLS) [1] came out at 58.5 ± 2.32 mM; at formolase (FLS) [2], 50.9 ± 3.22 mM.
By kcat is commonly meant the number of substrate molecules converted per active site and unit of time at saturation. Broadly, the kcat/Km is the second-order rate constant that governs catalysis at low substrate concentration. As to “formolase (FLS) (Pseudomonas fluorescens; A28I/A394G/A480W/F484A/G419N/L90T/R188H/W89R)”, in the data set with CC=O, the Michaelis-Menten constant (Km) is reported as 53.28 ± 2.52 mM, the kcat is 1.74 ± 0.12 s⁻¹ and the kcat/Km was determined as 32.6 M⁻¹ s⁻¹.
For “formolase (FLS) (Pseudomonas fluorescens; A28V/A394G/A480W/G419N/L90T/R188H/W89R)” the same measures were 81.95 ± 3.61 mM, 3.33 ± 0.21 s⁻¹ and 40.6 M⁻¹ s⁻¹.

These data come from PMC11357561, “Efficient 2,3-Butanediol Production from Ethanol by a Modified Four-Enzyme Synthetic Biosystem” (Molecules, 2024).
